Test results as given in paper PMC8357241.

Test system: PARP1
Test: fluorescence polarization
Conditions: EMSA: 20 mM Hepes pH 7.8, 150 mM NaCl, 2 mM MgCl2, 0.5 mM TCEP, 0.05 mg/ml BSA; TIRF same salts with 1 mg/ml BSA, 1 mg/ml beta-casein, 500 nM SYTOX Orange …

For DNA dumbbell containing a SSB, which Kd is on record?
The Kd was 71 nM.
